Key:
recombinant human IL-5 [1] = target: T1, recombinant human IL-5 (human, UniProt P05113 20-134); assay: KinExA 3000 kinetic exclusion assay, Dual Curve (Unknown Antigen) method
T1 construct: also called rhIL-5; interleukin-5
T1 sequence (looked up): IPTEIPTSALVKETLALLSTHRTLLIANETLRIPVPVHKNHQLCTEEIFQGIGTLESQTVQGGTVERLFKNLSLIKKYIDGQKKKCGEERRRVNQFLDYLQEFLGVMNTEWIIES
Experimental: (§1) The KinExA uses the principle of the Kinetic Exclusion Assay method based on measuring the concentration of uncomplexed antibody in a mixture of antibody, antigen and antibody-antigen complex. The concentration of free antibody is measured by exposing the mixture to a solid-phase immobilized antigen for a very brief period of time. In practice, this is accomplished by flowing the solution phase antigen-antibody mixture past antigen coated particles trapped in a flow cell. Data, generated by the instrument are analyzed using custom software. Equilibrium constants are calculated using a mathematical theory based on the following assumptions:
(§2) All experimental procedures were performed according to the KinExA 3000™ Manual. All runs were done in duplicate.
(§3) The antibody molecular weight used for calculation was 150 Kda.

recombinant human IL-5 [2] = target: T1, recombinant human IL-5; assay: KinExA 3000 kinetic exclusion assay, Dual Curve analysis (Standard mode), 0.1 and 0.01 nM antibody
Experimental: as §1, §2, §3

murine IL-5 = target: T2, murine IL-5 (murine, UniProt P04401 21-133); assay: cell-based or functional assay
T2 sequence (looked up): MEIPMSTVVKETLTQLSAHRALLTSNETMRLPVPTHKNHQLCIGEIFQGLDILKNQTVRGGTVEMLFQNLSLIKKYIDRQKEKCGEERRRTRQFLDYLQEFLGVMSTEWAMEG

recombinant human IL-5 [3] = target: T1, recombinant human IL-5; assay: cell-based or functional assay

B1: human monoclonal antibody 20.13.3 (antibody, human IgG4, kappa, V domains shown)
VH: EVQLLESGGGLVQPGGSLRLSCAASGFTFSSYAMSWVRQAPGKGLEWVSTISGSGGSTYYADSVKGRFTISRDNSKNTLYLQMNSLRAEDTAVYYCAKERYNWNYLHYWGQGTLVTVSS
VL: DIQMTQSPSSLSASVGDRVTITCQASQDIINYLNWYQQKPGKAPKLLIYSASNLETRVPSRFSGSGSGTDFTFTISSLQPEDIATYYCQQYDNHPLTFGGGTKVEIRR
How did the Kd (recombinant human IL-5 [1]) turn out when B1 was run?
The Kd was 19.5 pM.

And the Kd (recombinant human IL-5 [2])?
The Kd was 15 pM.

And the “IC50, TF-1 anti-proliferation assay” value (murine IL-5)?
The value was 380 pM.

What about the “IC50, TF-1 anti-proliferation assay” value (recombinant human IL-5 [3]) of the same binder?
Its value is 250 pM.

From patent publication US20030194404A1 (SCHERING, published 2003)
